Measurements as given in article PMC3795964 (Journal of molecular biology, 2013).
Each block holds one binder with its values, some of them ahead of it.

Target: 6XHIS-tagged Dbp2 (S. cerevisiae, UniProt P24783 1-546)
Experiment: pull-down

Sequence of 6XHIS-tagged Dbp2 (P24783 whole entry): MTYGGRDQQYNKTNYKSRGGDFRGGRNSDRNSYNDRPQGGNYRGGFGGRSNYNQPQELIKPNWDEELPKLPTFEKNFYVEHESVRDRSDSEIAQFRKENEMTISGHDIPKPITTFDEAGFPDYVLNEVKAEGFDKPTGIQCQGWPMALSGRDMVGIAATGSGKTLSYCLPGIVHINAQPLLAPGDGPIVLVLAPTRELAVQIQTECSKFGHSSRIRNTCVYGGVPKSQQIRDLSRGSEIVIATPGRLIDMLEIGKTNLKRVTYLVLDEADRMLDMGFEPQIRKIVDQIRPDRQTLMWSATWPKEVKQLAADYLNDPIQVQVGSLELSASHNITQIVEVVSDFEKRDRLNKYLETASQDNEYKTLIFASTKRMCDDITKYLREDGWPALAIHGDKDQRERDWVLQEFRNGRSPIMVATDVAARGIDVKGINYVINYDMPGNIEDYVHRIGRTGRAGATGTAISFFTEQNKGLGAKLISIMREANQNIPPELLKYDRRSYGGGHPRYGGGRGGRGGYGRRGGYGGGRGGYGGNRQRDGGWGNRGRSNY

- binding result: binds
B1: GST-tagged Yra1 (full length) (natural protein, S. cerevisiae, UniProt Q12159 1-226, looked up)
chain: MSANLDKSLDEIIGSNKAGSNRARVGGTRGNGPRRVGKQVGSQRRSLPNRRGPIRKNTRAPPNAVARVAKLLDTTREVKVNVEGLPRDIKQDAVREFFASQVGGVQRVLLSYNERGQSTGMANITFKNGELARRAVERFNGSPIDGGRSRLRLNLIVDPNQRPVKSLADRIKAMPQKGGNAPRPVKRGPNRKAAMAKSQNKPKREKPAKKSLEDLDKEMADYFEKK

- binding result: binds
B2: GST-Yra1 C (domain or fragment, S. cerevisiae, UniProt Q12159 124-226, looked up)
chain: ITFKNGELARRAVERFNGSPIDGGRSRLRLNLIVDPNQRPVKSLADRIKAMPQKGGNAPRPVKRGPNRKAAMAKSQNKPKREKPAKKSLEDLDKEMADYFEKK
